“Also recorded” adds a separate entry of the source.
Experiments:
SCID mice = experiment: In vivo angiogenesis assay, subcutaneous Matrigel plugs with SCF or β-FGF; parameters: species or system mouse; conditions: subcutaneous Matrigel in adult SCID mice, fourteen days after injection
Description: (§1) Confluent-grown ECs were treated with 50 ng/ml of SCF for 5, 10, 15, and 30 min after 24 hr of serum starvation. The ECs were collected with RIPA lysis buffer (Upstate, Charlottesville, Va.) containing 50 mM NaF, 1 mM Na3VO4, […], and Protease Inhibitor Cocktail (Roche). The antibodies were purchased from Cell Signaling Technology, Inc. (Beverly, Mass.) or as mentioned otherwise. All the primary antibodies were used in a 1:1000 dilution except for the anti-SCF antibody, which was used in a 1:2000 dilution. The primary antibodies were anti-phospho-c-Kit, anti-phospho-MEK1/2 and anti-MEK1/2, anti-phospho-p44/42 MAPK and anti-p44/42 MAPK, anti-phospho-SAPK/JNK and anti-SAPK/JNK, anti-phospho-p38 MAPK and anti-p38 MAPK, anti-phospho-Akt and anti-Akt, anti-phospho-mTOR and anti-mTOR, anti-phospho-4E-BP1 and anti-4E-BP1, anti-SCF and anti-VEGF (Chemicon, Temecula, Calif.), and anti-β-tubulin (Sigma). Re-blotting was done after membranes were stripped by re-blot kit (Chemicon). Tie2 detection in Matrigel plugs from the in vivo Matrigel assay was carried out by immunoprecipitation and immunoblotting. The gel plugs were carefully separated from muscle and skin and homogenized with RIPA lysis buffer. The resulting total tissue lysates ([…]) were immunoprecipitated with Tie2 antibody (Santa Cruz Biotechnology, Inc., Santa Cruz, Calif.) and then analyzed by immunoblot with Tie2 antibody (Zadeh et al. 2004 Am J Pathol 162:467-476).
All adult mice (6-8 weeks of age) were from NCI-Fredrick, and the animal experiments were conducted on an animal experimentation protocol approved by the NCI's animal protection committee (the “ACUC”). […]

BMVEC-b = experiment: Thymidine incorporation in BMVEC-b exposed to SCF; type: cell-based, bovine; conditions: basal medium
Description: (§2) After ECs (3×10^3/well) were adhered to 96-well gelatin-coated plates (BD Discovery Labware, Bedford, Mass.), the EC growth medium was replaced by SCF ([…]) (R&D Systems, Minneapolis, Minn.) suspended in treatment medium (basal medium with 0.1% BSA) for an additional 48 hr (HUVEC and HMVEC-d) or 72 hr (BMVEC-b) with renewal of medium at 24 hr intervals. ECs were cultured for 4 hr in 0.25 μCi of [^3H]thymidine (Amersham Pharmacia Biotech, Piscataway, N.J.) at the end. High molecular mass [^3H]-radioactivity was precipitated and counted.

bMVEC-B cells [1] = experiment: bMVEC-B tube formation on matrigel (Example 3); type: cell-based; conditions: vs SCF-absent control
Source text: Endothelial cell tube formation on extracellular matrix (ECM) is a commonly used in vitro model of EC differentiation and angiogenesis. We examined the SCF effects on the bMVEC-B cell tube formation.

[2] = system: c-Kit, MAPK and PI3K/Akt pathways in HUVEC; experiment: Immunoblot of SCF/c-Kit signal transduction, HUVEC; type: cell-based, human
Description: as §1

HBMEC = experiment: EC proliferation, HBMEC exposed to SCF; type: cell-based, human
[3] = system: c-Kit, MAPK and PI3K/Akt pathways in BMVEC-b; experiment: Immunoblot of SCF/c-Kit signal transduction, BMVEC-b; type: cell-based, bovine
Description: as §1

bMVEC-B cells [4] = experiment: bMVEC-B DNA synthesis by thymidine incorporation (Example 3); type: cell-based; conditions: rmSCF 1 ng/ml to 250 ng/ml, 72 hours
Description: To specifically confirm the pro-angiogenic effects of SCF in the brain, bMVEC-B cells were used. The cells were cultured in the presence of different concentrations of rmSCF (1 ng/ml to 250 ng/ml) or 0.1% BSA only medium for 72 hours. The rate of DNA synthesis was measured by thymidine incorporation.

endogenous NSPCs = experiment: In vivo progenitor cell migration, BrdU labeling and intracerebral rmSCF injection; parameters: species or system mouse; conditions: vs contralateral side and PBS-injected animals, day 7
HMVEC-d = experiment: Thymidine incorporation in HMVEC-d exposed to SCF; type: cell-based, human; conditions: basal medium, 48 hr
Description: as §2

[5] = SCF 50 ng/ml after serum starvation

B1: SCF: Stem cell factor protein (R&D Systems), ligand of the c-Kit receptor (protein)
chain: KEICGNPVTDNVKDITKLVANLPNDYMITLNYVAGMDVLPSHCWLRDMVIQLSLSLTTLLDKFSNISEGLSNYSIIDKLGKIVDDLVLCMEENAPKNIKESPKRPETRSFTPEEFFSIFNRSIDAFKDFMVASDTSDCVLSSTLGPEKDSRVSVTKPFMLPPVA
Tie2 protein in Matrigel plug (SCID mice): high Tie2 expression | angiogenesis in Matrigel plug (H&E, vWF-positive vessels) (SCID mice): high density of blood vessels; also recorded: induced substantial angiogenesis | BMVEC-b proliferation increase (thymidine incorporation) (BMVEC-b; 1 ng of SCF per ml for 72 hr): approximately 6 fold | BMVEC-b proliferation increase (thymidine incorporation) (BMVEC-b; 10 ng of SCF per ml for 72 hr): ~7 fold | proliferation (thymidine incorporation) (BMVEC-b; BMVEC-b, 72 hr): stimulated proliferation in all three primary ECs in a dose-dependent manner | bMVEC-B tube formation on matrigel (bMVEC-B cells [1]): enhanced bMVEC-B cell tube formation; also recorded: at much earlier time point and more completely | duration of p38 MAPK activation ([2]; SCF 50 ng/ml): over 30 min | phosphorylation of 4E-BP1 ([2]; SCF 50 ng/ml): increased phosphorylation of 4E-BP1 | phosphorylation of Akt ([2]; SCF 50 ng/ml): significantly enhanced | phosphorylation of MEK1/2 ([2]; SCF 50 ng/ml): dramatically increased | phosphorylation of p44/42 MAPK ([2]; SCF 50 ng/ml): dramatically increased | time of SAPK/JNK activation following SCF exposure ([2]; SCF 50 ng/ml): 10 to 15 min | duration of c-Kit auto-tyrosine-phosphorylation [2, 5]: 30 min | time of peak c-Kit auto-tyrosine-phosphorylation [2, 5]: 10 to 15 min | HBMEC proliferative response (HBMEC; SCF from 0.1 to 10 ng per ml): dose-dependent growth | EC growth and survival with SCF alone (HBMEC; without the addition of other cytokines such as VEGF): sufficient to sustain human brain microvascular EC and other EC cell growth and survival | duration of p38 MAPK activation ([3]; SCF 50 ng/ml): over 30 min | phosphorylation of 4E-BP1 ([3]; SCF 50 ng/ml): increased phosphorylation of 4E-BP1 | phosphorylation of Akt ([3]; SCF 50 ng/ml): significantly enhanced | phosphorylation of MEK1/2 ([3]; SCF 50 ng/ml): dramatically increased | phosphorylation of p44/42 MAPK ([3]; SCF 50 ng/ml): dramatically increased | time of SAPK/JNK activation following SCF exposure ([3]; SCF 50 ng/ml): 10 to 15 min | duration of c-Kit auto-tyrosine-phosphorylation [3, 5]: 30 min | time of peak c-Kit auto-tyrosine-phosphorylation [3, 5]: 10 to 15 min | bMVEC-B DNA synthesis (thymidine incorporation) (bMVEC-B cells [4]): stimulated DNA synthesis | BrdU-positive cells in the SCF-injected area (endogenous NSPCs): Significantly more BrdU labeled cells | proliferation (thymidine incorporation) (HMVEC-d): stimulated proliferation in all three primary ECs in a dose-dependent manner

Source: patent US20060286117A1, “Neuronally expressed stem cell factor modulates angiogenesis and neural stem cell migration to areas of brain injury” (priority 2003, published 2006)
